Laboratory results published in US20220177587A1, “METHODS AND USES OF VARIANT CD80 FUSION PROTEINS AND RELATED CONSTRUCTS” (Alpine Immune Sciences, Inc., priority 2018, published 2022).

Legend:
[1] = system: primary human pan T cells; assay: Cytokine production following PD-L1-dependent costimulation; type: cell-based; conditions: mitomycin-c treated K562/OKT3/PDL1 aAPC; FIG. 6
PD-L1/PD-1 interaction = target: T1, PD-L1/PD-1 interaction (Homo sapiens, UniProt Q9NZQ7); assay: PD-L1/PD-1 binding and blocking on CHO/PD-L1 cells; conditions: fluorescently conjugated PD-1-Fc; FIG. 7
T1 construct: expressed in transfected cells
Protocol: Binding of selected immunomodulatory fusion proteins to cells expressing PD-L1 was assessed to test for blocking of the PD-L1/PD-1 interaction. […] Samples were acquired on a flow cytometer and MFIs of the fluorescently labeled PD-1 were determined by Flowjo software analysis.
(§1) The multivalent variant CD80 IgSF domain fusion proteins were assessed to test for blocking of the PD-L1/PD-1 and CTLA-4/CD80 interaction performed substantially as described in Example 15. CHO/OKT3/PD-L1 and CHO/CTLA-4 cells were counted and plated at 100,000 cells/well and then incubated with fluorescently conjugated PD-1-Fc and CD80-Fc. Exemplary multivalent variant CD80 IgSF domain fusion proteins were incubated with the cells for 30 minutes. […] Cells were washed and incubated with 100 nM fluorescently conjugated PD-1-Fc and CD80-Fc competitor for 30 minutes. Cells were then washed and samples were acquired on a flow cytometer and MFIs of the fluorescently labeled molecules were determined.

CD28 [2] = target: T2, CD28 (Homo sapiens, UniProt P10747); assay: Flow binding to Jurkat/IL2 reporter cells (CD28); parameters: host or cells: Jurkat cells expressing an IL-2-luciferase reporter; conditions: Table E19; Jurkats (CD28); 33.3 nM
Outline: (§2)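 Fusion proteins bound to CHO cells stably expressing CTLA4 or PD-L1, or to Jurkat/IL2 reporter cells with endogenous CD28, for 45 min on ice after blocking in PBS/1% BSA. Detection with PE anti-human Fc by flow cytometry; PE MFI per cell type and binding EC50 determined.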

CD28 [3] = target: T2, CD28; assay: Jurkat/IL2 + K562/OKT3/PD-L1 reporter assay; type: cell-based; parameters: host or cells: Jurkat cells expressing an IL-2-luciferase reporter
huCTLA4 [4] = target: T3, huCTLA4 (Homo sapiens, UniProt P16410); assay: Antagonism of CD80/CTLA-4 binding on CHO cells expressing CTLA-4; parameters: Full-length mammalian surface expression constructs for each of human CTLA-4, PD-L1, and CD28; conditions: 25 nM fluorochrome-conjugated wild-type CD80-Fc; FIG. 21
Protocol: After washing, cells were incubated with 25 nM fluorochrome-conjugated wild-type CD80-Fc. Bound fluorescent competitor protein was detected and measured by flow cytometry.
as §1

huCTLA4 [5] = target: T3, huCTLA4; assay: Flow binding to CHO cells stably expressing CTLA4; parameters: huCTLA4 and huPD-L1, full-length mammalian surface expression constructs were generated; expressed in transfected cells; host or cells: CHO cells, lentiviral transduction, sorted to >98% purity; conditions: Table E19; CHO cells stably expressing CTLA4; 33.3 nM
Outline: as §2

[6] = system: huPD-L1 transduced MC38 tumor cells; assay: In vitro cytotoxicity to huPD-L1 transduced MC38 tumor cells; type: cell-based, mouse; conditions: 100 nM or 10 nM; 72 hours; human pan T cells 1:5; FIG. 17
Protocol: This Example describes the assessment of in vitro cytotoxicity of huPD-L1 transduced MC38 tumor cells. MC38 tumor cells, non-transduced or transduced with huPD-L1, were treated with Mitomycin-C and plated with human pan T cells labelled with CFSE at a 1:5 ratio. […] As a control, an exemplary anti-PD-1 antibody nivolumab or an Fc (inert) only control also were assessed. Cells were then harvested and stained with 7-AAD viability dye. After acquiring samples on a flow cytometer, the percentage of dead cells was calculated using Flowjo analysis by gating on 7-AAD+ cells in the CFSE− gate.

CD28 [7] = target: T2, CD28; assay: Jurkat/IL2 reporter assay: blockade of CD28 costimulation (plate-bound anti-CD3/CD86-Fc); type: cell-based; parameters: host or cells: Jurkat cells expressing an IL-2-luciferase reporter; conditions: Table E5; protein diluted to 40 nM before mixing with cells; 5 hours
Outline: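 Jurkat cells carrying an IL-2–luciferase reporter were preincubated 15 min at room temperature with CD80-Fc fusion molecules, then added to plates coated overnight with anti-CD3 and CD86-Fc. After 5 h at 37 °C, luciferase luminescence was read with Bio-Glo.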

CD28 [8] = target: T2, CD28; assay: Jurkat/IL2 + CHO/OKT3 +/- PD-L1 reporter assay: PD-L1-dependent CD28 costimulation; type: cell-based; parameters: host or cells: Jurkat cells expressing an IL-2-luciferase reporter; conditions: luciferase signal
Outline: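 Jurkat reporter cells (100,000/well) preincubated 15 min at room temperature with test protein, then cocultured 5 h at 37 °C with CHO aAPCs bearing anti-CD3 scFv (OKT3) with or without PD-L1. Luciferase luminescence (RLU) read after lysis-substrate addition.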

CD28 [9] = target: T2, CD28; assay: CD28 costimulation via Fc receptor or PD-L1 dependent cross-linking (Jurkat/IL2 + K562/OKT3 +/- PD-L1); type: cell-based; parameters: host or cells: Jurkat cells expressing an IL-2-luciferase reporter; conditions: K562/0KT3 aAPC, luciferase signal
Protocol: In a further experiment, CD28 costimulation was assessed for variant CD80-IgV-Fc fusion proteins, where the Fc was an IgG1 Fc (e.g. SEQ ID NO:1517) capable of mediating effector activity via binding to Fc receptors (FcR). The experiment was carried out as described in part A above, except CD32-expressing K562 cells stably transduced with OKT3 (K562/OKT3) or OKT3 and PD-L1 (K562/OKT3/PD-L1) were used instead of the CHO/OKT3 and CHO/OKT3/PD-L1 cells, and the results are depicted in Table E9.

T3 sequence (P16410 36-223): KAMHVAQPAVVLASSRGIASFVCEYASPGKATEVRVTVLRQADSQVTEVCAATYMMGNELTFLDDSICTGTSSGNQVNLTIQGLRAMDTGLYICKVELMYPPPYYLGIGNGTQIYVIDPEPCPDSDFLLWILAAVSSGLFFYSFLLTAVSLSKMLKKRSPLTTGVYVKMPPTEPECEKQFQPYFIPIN
T1 sequence (Q9NZQ7 19-290): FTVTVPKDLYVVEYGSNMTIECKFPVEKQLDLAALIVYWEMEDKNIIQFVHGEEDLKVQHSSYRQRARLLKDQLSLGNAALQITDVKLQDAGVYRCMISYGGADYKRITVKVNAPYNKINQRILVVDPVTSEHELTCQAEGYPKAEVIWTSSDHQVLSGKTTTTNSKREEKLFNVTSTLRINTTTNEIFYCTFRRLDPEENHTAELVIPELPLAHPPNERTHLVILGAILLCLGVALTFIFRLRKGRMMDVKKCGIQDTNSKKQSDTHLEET

| Molecule | IL-2 secretion in culture supernatants [1] | blocking of binding of PD-1 to PD-L1 (PD-L1/PD-1 interaction) | CD28 MFI at 33.3 nM (CD28 [2]) | PD-L1 dependent CD28 costimulation (luciferase activity) (CD28 [3]; IgV-Fc (inert), various concentrations, FIG. 5) | Relative Luciferase Units (RLU), CD80-Fe Cone 50 nM (CD28 [3]; Table E8, K562/OKT3/PD-L1 aAPC, 50 nM) | antagonism of binding of CD80 to CTLA-4 (huCTLA4 [4]) | CTLA4 MFI at 33.3 nM (huCTLA4 [5]) | cytotoxicity (percentage of dead 7-AAD+ tumor cells) [6] | Average Relative Luminescence Units (CD28 [7]) | PD-L1-Dependent CD28 Costimulation, +PD-L1, 0.6 nM (CD28 [8]; CHO/OKT3/PD-L1 aAPC, 0.6 nM) | PD-L1-Dependent CD28 Costimulation, +PD-L1, 50 nM (CD28 [8]; CHO/OKT3/PD-L1 aAPC, 50 nM) | PD-L1-Dependent CD28 Costimulation, No PD-L1, 50 nM (CD28 [8]; CHO/OKT3 aAPC, no PD-L1, 50 nM) | PD-L1-Dependent CD28 Costimulation, No PD-L1, […] (CD28 [8]; CHO/OKT3 aAPC, no PD-L1, […]) | CD28 costimulation, FcR Dependent Cross-Linking (No PD-L1), 0.6 nM (CD28 [9]; 0.6 nM) | CD28 costimulation, FcR Dependent Cross-Linking (No PD-L1), 50 nM (CD28 [9]; 50 nM) |
| --- | --- | --- | --- | --- | --- | --- | --- | --- | --- | --- | --- | --- | --- | --- | --- |
| E35D/M47V/N48K/V68M/K89N: variant CD80 IgV-Fc, IgV SEQ ID NO:465 (protein) VIHVTKEVKEVATLSCGHNVSVEELAQTRIYWQKDKKMVLTMMSGDVKIWPEYKNRTIFDITNNLSIMILALRPSDEGTYECVVLKYENDAFKREHLAEVTLSVKAD | resulted in IL-2 secretion in culture supernatants | antagonize or block binding of PD-1 to PD-L1 | 1348 | induced PD-L1 dependent CD28 costimulation in a dose-dependent manner | 1439 RLU | antagonized the binding of CD80 to CTLA-4 | 20884 |  |  |  |  |  |  |  |  |
| E35D/M47I/L70M: variant CD80 IgV-Fc, IgV SEQ ID NO:199 (SEQ ID NO:125 in b995) (protein) VIHVTKEVKEVATLSCGHNVSVEELAQTRIYWQKDKKMVLTMMSGDINIWPEYKNRTIFDITNNLSIVIMALRPSDEGTYECVVLKYEKDAFKREHLAEVTLSVKAD |  |  |  |  |  |  |  | increased cytotoxicity against huPD-L1 transduced MC38 tumor cells, but not non-transduced MC38 parental cells | 1077 Relative Luminescence Units | 1004 | 2629 | 600 | 549 | 1609 | 5780 |
